From article PMC6741145

Target: His6‐tagged DP1 (small subunit of DNA polymerase D) of Thermococcus sp. 4557 (Thermococcus sp. 4557)
Test: SEC; 100 µg of each protein or mixture on Superdex‐200 HR10/30 in 25 mM Tris‐HCl pH 7.5, 100 mM NaCl, 10% glycerol; fractions on SDS–PAGE, Coomassie

stoichiometry N: 2
Substance: His6‐tagged DP1 (small subunit of DNA polymerase D) of Thermococcus sp. 4557 (enzyme)
